In patent US20230391844:

Columns and labels:
[1] = test system: mAb-PCL(15AA)-IL2-PCL(15AA)-IL2Rα
[2] = test system: mAb-PCL(15AA)-IL2-PCL(20AA)-IL2Rα

Substance: recombinant human uPA (R&D Cat #1310-SE)
- release of free IL2 after uPA digestion (reducing SDS-PAGE, western blot probed with biotinylated anti-hIL2) [1]: Protease digestion of the IL2 proproteins with uPA resulted in the release of free IL2 from both IL2 proproteins
- release of free IL2 after uPA digestion (reducing SDS-PAGE, western blot probed with biotinylated anti-hIL2) [2]: the IL2 proprotein construct comprising a 20AA linker between IL2 and IL2Rα domains displayed a more complete linker digestion and IL2 release relative to the construct comprising a 15AA linker between IL2 and IL2Rα
